Read-outs that look alike come from different tables or passages of the source.
T1: BODIPY-labeled staphylocoagulase SC (S7C)(1-325) (Staphylococcus aureus, UniProt P17855 27-351)
T1 sequence: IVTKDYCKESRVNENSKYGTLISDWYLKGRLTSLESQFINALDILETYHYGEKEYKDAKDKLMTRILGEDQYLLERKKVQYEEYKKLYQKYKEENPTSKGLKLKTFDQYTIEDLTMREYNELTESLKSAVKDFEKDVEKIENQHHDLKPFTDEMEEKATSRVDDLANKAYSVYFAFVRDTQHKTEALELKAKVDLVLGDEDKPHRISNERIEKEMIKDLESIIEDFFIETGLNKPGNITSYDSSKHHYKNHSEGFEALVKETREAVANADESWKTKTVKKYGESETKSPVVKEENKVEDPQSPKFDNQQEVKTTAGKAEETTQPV

T2: staphylocoagulase SC(1-246), unlabeled (Staphylococcus aureus, UniProt P17855 27-272)
T2 sequence: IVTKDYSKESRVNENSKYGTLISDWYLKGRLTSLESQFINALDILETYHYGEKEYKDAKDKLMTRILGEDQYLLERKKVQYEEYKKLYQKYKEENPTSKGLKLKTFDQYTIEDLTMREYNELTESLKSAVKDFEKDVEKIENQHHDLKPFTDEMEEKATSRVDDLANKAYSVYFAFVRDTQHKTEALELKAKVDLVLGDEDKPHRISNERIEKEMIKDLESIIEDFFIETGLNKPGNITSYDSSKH


Assays:
[1] = target: Mutated Peptide Ala 8 & 9 (Staphylococcus aureus); test: solid phase competitive inhibition ELISA; peptide in solution against coated …
Mutated Peptide Ala 8 = Mutated Peptide Ala 8 (Staphylococcus aureus); test: as above
Mutated Peptide Ala 9 = Mutated Peptide Ala 9 (Staphylococcus aureus); test: as above
[2] = target: T1, BODIPY-labeled staphylocoagulase SC …
[3] = target: T2, staphylocoagulase SC(1-246), unlabeled
[4] = target: T1, BODIPY-labeled staphylocoagulase SC …; test: BODIPY fluorescence increase on titration, quadratic binding equation

| Binder | binding result [1] | binding result (Mutated Peptide Ala 8) | binding result (Mutated Peptide Ala 9) | Kd [2] | stoichiometry [2] | Kd [3] | Kd [4] | stoichiometry (n) [4] |
| --- | --- | --- | --- | --- | --- | --- | --- | --- |
| GMA-2105 murine monoclonal antibody (antibody, V domains shown, also called anti-SC(1-10) mAb; clone 2A1.5H4.B7) VH: EVKLEESGGGLVQPGGSMKLSCAASGFTFSDAWMDWVRQSPEKGLEWVAEIRTKANNHATYYAESVKGRFTISRDDSKSSVYLQMNSLRAEDTGIYYCTNVYYGNNDVKDYWGQGTSVTVSP VL: DIVMTQSQKFMSTSVGDRVSVTCKASQNVDIYVAWYQQKPGQSPKALIYSASYRFSGVPDRFTGSGSGTDFTLSISNVQSEDLAEYFCQQYNNYPYTFGGGTKLEIKR | binds | binds | binds | 0.99 nM | 2 mol staphylocoagulase/mol GMA-2105 | 4 nM | 2 nM | 1.6 mol BODIPY-SC/mol GMA-2105 |
| Chimeric GMA-2105 (antibody, V domains shown) VH: EVKLEESGGGLVQPGGSMKLSCAASGFTFSDAWMDWVRQSPEKGLEWVAEIRTKANNHATYYAESVKGRFTISRDDSKSSVYLQMNSLRAEDTGIYYCTNVYYGNNDVKDYWGQGTSVTVSP VL: DIVMTQSQKFMSTSVGDRVSVTCKASQNVDIYVAWYQQKPGQSPKALIYSASYRFSGVPDRFTGSGSGTDFTLSISNVQSEDLAEYFCQQYNNYPYTFGGGTKLEIKR |  |  |  | 0.79 nM | 2 mol staphylocoagulase/mol chimeric antibody |  |  |  |
